US11306331B2, “Processes for the production of hydroxycinnamic acids using polypeptides having tyrosine ammonia lyase activity” (CysBio ApS, priority 2014, dated 2022)

What was measured:
[1] = substrate: N[C@@H](Cc1ccccc1)C(=O)O; experiment: purified protein, by the assay type; settings: other: RsTAL, 30° C, 1.56 μM to 200 μM tyrosine or 193 μM to 25 mM phenylalanine, pH 7.5
Method: (§5) Enzymatic assays were performed in 200 μL volumes in wells in a UV transparent 96-well plate, by following the increase in absorbance at 315 nm (pHCA) or 295 nm (CA). The reaction mixtures contained 2 μg of purified protein and were initiated by adding 1 mM tyrosine or 6 mM after equilibration to 30° C. The enzymatic activity was calculated as U/g, where U is defined as μmol substrate converted per minute.

[2] = substrate: N[C@@H](Cc1ccc(O)cc1)C(=O)O; experiment: purified protein, by the assay type; settings: other: RsTAL, 30° C, 1.56 μM to 200 μM tyrosine or 193 μM to 25 mM phenylalanine, pH 7.5
Method: as §5

[3] = substrate: N[C@@H](Cc1ccccc1)C(=O)O; experiment: In vitro kinetics of purified His-tagged SeSam8 (tyrosine/phenylalanine ammonia lyase activity, absorbance at 315/295 nm); assay type: biochemical, Saccharothrix espanaensis; settings: other: SeSam8, 30° C, 1.56 μM to 200 μM tyrosine or 193 μM to 25 mM phenylalanine, pH 7.5
From the text: (§1) Four of the enzymes were further purified by His-tag purification as follows. A DNA linker (5′ phosphorylated oligonucleotides CBJP559 and CBJP560, Table 5) was inserted in place of the sequence between the NdeI and BgIII site in plasmid pCDFDuet-1. This would result in the addition of the amino acids MAHHHHHHENLYFQ (SEQ ID NO: 11) to the N-terminal end of the polypeptides. The resulting plasmid was amplified with primers CBJP575 and CBJP576 (table 5) and the genes were amplified and combined using the Gibson reaction (New England Biolabs). The PCR amplification used the same reverse primers as in example 1, but the forward primers matching the His-tag site of the linker (Table 5). Plasmids carrying the genes (e.g. FjXAL, FIG. 4) were transformed into electrocompetent E. coli BL21(DE3)pLysS cells (Life Technologies) and selected on LB plates containing 50 ug/mL streptomycin.
(§2) Strains expressing His-tagged versions of the enzymes were grown in LB media overnight at 37° C. and diluted into fresh LB media with 1 mM IPTG and growth was propagated overnight (approximately 18 h) at 30° C. Cells were harvested by centrifugation at 8000 rpm for 8 minutes, and disrupted by shearing into a buffer (50 mM Tris-HCl, 10 mM imidazole, 500 mM NaCl, 10% glycerol, pH 7.5). The homogenate was clarified by centrifugation at 10000 g for 10 min at 4° C., and the supernatant was loaded onto Ni2+-NTA resin column on an Äkta Pure system connected to a F9-C fraction collector (GE). Finally the fractions containing the purified polypeptide was dialyzed overnight against a buffer containing 50 mM Tris-HCl pH 7.5, 150 mM NaCl and 10% glycerol, flash-frozen in liquid nitrogen and stored at −80° C.
(§3) Enzymatic assays were performed in 200 μL volumes in wells in a UV transparent 96-well plate, by following the increase in absorbance at 315 nm (pHCA) or 295 nm (CA). […] The enzymatic activity was calculated as U/g, where U is defined as μmol substrate converted per minute.

[4] = substrate: N[C@@H](Cc1ccc(O)cc1)C(=O)O; experiment: as above; assay type: biochemical, Saccharothrix espanaensis; settings: other: SeSam8, 30° C, 1.56 μM to 200 μM tyrosine or 193 μM to 25 mM phenylalanine, pH 7.5
From the text: as §1, §2, §3

[5] = test system: Saccharomyces cerevisiae CEN.PK102-5B; experiment: Specific production of pHCA and CA by S. cerevisiae expressing TAL enzymes; assay type: cell-based; settings: 72 h, 30° C., +/- standard deviation
From the text: A number of the previously characterized enzymes were characterized when expressed in Saccharomyces cerevisiae. Genes encoding HaXAL1 and FjXAL were synthesized with codon optimization for S. cerevisiae available by GeneArt (Life Technologies), and were named HaXAL1 Sc and FjXALSc. Genes were amplified using the oligonucleotide (refer to specific name) shown in Table 6, and inserted by uracil-excision into the vector pCfB132 together with the PPGK1 promoter amplified by primers PPGK1_fw and PPGK1_rv (Jensen et al., 2014). The finished plasmids were transformed into Saccharomyces cerevisiae CEN.PK102-5B (MAT a ura3-52 his3Δ1 leu2-3/112 MAL2-8c SUC2) using a standard lithium acetate transformation protocol and selected for on synthetic drop-out media plates lacking uracil.
Cells were grown in SC medium without uracil, and diluted into Delft medium or Feed-In-Time (FIT) medium (m2p-labs) supplemented with leucine and histidine. After 72 h of incubation at 30° C. with shaking, samples were taken for the analysis of optical density at 600 nm and for clarification of the supernatant, which was analyzed by HPLC as described in example 1. The specific production was calculated as micromolar (μM) concentration per unit of optical density of the culture at 600 nm and is shown in Table 4.

[6] = test system: E. coli BL21(DE3)pLysS cells; experiment: Specific production of pHCA and CA by E. coli expressing TAL/PAL enzymes; assay type: cell-based, Escherichia coli; settings: 24 h after supplementation, +/- standard deviation
Method: Plasmids carrying the genes were transformed into electrocompetent E. coli BL21(DE3)pLysS cells (Life Technologies) and selected on LBplates containing 50 ug/mL streptomycin. The strains were grown in M9 minimal media containing glucose as a carbon source, and expression was induced by adding 1 mM IPTG at an optical density at 600 nm of 0.6. After three hours of growth at 30° C. the cultures were supplemented with 2 mM tyrosine, phenylalanine or histidine. After further 24 hours, samples were withdrawn for determination of the optical density at 600 nm and for the isolation of the supernatant.
The concentration of pHCA and CA in the supernatant was quantified by high performance (HPLC) and compared to chemical standards. HPLC was done on a Thermo setup using a HS-F5 column and mobile phases: 5 mM ammonium formate pH 4.0 (A) and acetonitrile (B) at 1.5 mL min-1, using a gradient elution starting at 5% B. From 0.5 min after injection to 7 min, the fraction of B increased linearly from 5% to 60%, and between 9.5 min and 9.6 the fraction of B decreased back to 5%, and remaining there until 12m pHCA and CA were quantified by measuring absorbance at 333 nm and 277 nm, respectively. The production was tested without addition of precursors or the addition of either phenylalanine or tyrosine to the growth medium.
The specific production was calculated as micromolar (μM) concentration per unit of optical density of the culture at 600 nm, and standard deviations were calculated based on triplicate experiments. HaXAL1, HaXAL2 and FjXAL are the most specific enzymes and those that reach the highest yields.

[7] = substrate: N[C@@H](Cc1ccccc1)C(=O)O; experiment: In vitro kinetics of purified His-tagged HaXAL1 (tyrosine/phenylalanine ammonia lyase activity, absorbance at 315/295 nm); assay type: biochemical, Herpetosiphon aurantiacus; settings: other: HaXAL1, 30° C, 1.56 μM to 200 μM tyrosine or 193 μM to 25 mM phenylalanine, pH 7.5
Method: (§4) The tyrosine ammonia lyase activity may for instance be determined in accordance to the following method: Enzymatic assays are performed in 200 μL volumes in wells in a UV transparent 96-well plate, by following the increase in absorbance at 315 nm (pHCA) using spectrophotometry or HPLC with UV detection. The reaction mixtures contain 2 μg of purified protein and are initiated by adding 1 mM tyrosine or 6 mM after equilibration to 30° C. The enzymatic activity is calculated as U/g, where U is defined as μmol substrate converted per minute. Negative controls contain no purified protein. Kinetic constants Km and vmax are determined from assays containing 1.56 μM to 200 μM tyrosine. See also Kyndt et al. (2002).
as §1, §2, §3

[8] = substrate: N[C@@H](Cc1ccc(O)cc1)C(=O)O; experiment: as above; assay type: biochemical, Herpetosiphon aurantiacus; settings: other: HaXAL1, 30° C, 1.56 μM to 200 μM tyrosine or 193 μM to 25 mM phenylalanine, pH 7.5
Method: as §4, §1, §2, §3

[9] = test system: E. coli BL21(DE3)pLysS cells; experiment: Titers of hydroxycinnamic acids in supernatants of E. coli cultures expressing TAL homologs; assay type: cell-based, Escherichia coli; settings: 16 hours, 37° C., duplicate
Method: E. coli strains described in Example 1 were used. M9 medium with 0.2% glucose and 0.5 mM IPTG also containing either tyrosine (204 μM), L-dopa (194 μM) or 3-O-methyldopa (262 μM) was transferred as 3-mL aliquots into a 24-well deep-well plate (Enzyscreen). Aliquots were taken for HPLC before the wells were inoculated with 200 μL of overnight cultures of the strains. The plates were placed at 37° C. with shaking for 16 hours. Samples of the supernatant were withdrawn after two rounds of centrifugation. The samples were subjected to HPLC along with chemical standards as described in Example 1. p-coumaric acid, caffeic acid and ferulic acid was measured by absorbance at 333 nm. Tyrosine, L-dopa and 3-O-methyldopa were measured by fluorescence (excitation at 274 nm, emission at 303 nm).
There was no measurable product in the medium before inoculation.

B1: Rhodobacter sphaeroides RsTAL (Protein GI 126464011), His-tagged (N-terminal tag SEQ ID NO: 11) (Cereibacter sphaeroides 2.4.1) (protein)
chain: MLAMSPPKPAVELDRHIDLDEAHSVASGGARIVLAPPARDRCRASEARLGAVIREARHVYGLTTGFGPLANRLVSGENVRTLQANLVHHLASGVGPVLDWTTARAMVLARLVAIAQGASGASEGTIARLIDLLNSELAPAVPMRGTVGASGDLTPLAHMVLCLQGRGDFLDRDGTRLDGAEGLRRGRLQPLDLSHRDALALVNGTSAMTGIALVNAHACRHLGNWAVALTALLAECLGGRTEAWAAALSDLRPHPGQKDAAARLRARVDGSARVVRHVIAERRLGASDIGTEPEAGQDAYSLRCAPQVLGAGFDTLAWHDRVLTIELNAVTDNPVFPPDGSVPALHGGNFMGQHVALTSDALATAVTVLAGLAERQIARLTDERLNRGLPPFLHRGPAGLNSGFMGAQVTATALLAEMRATGPASIHSISTNAANQDVVSLGTIAARLCREKIDRWAEILAILALCLAQAAELRCGSGLDGVSPAGKKLVQALREQFPPLETDRPLGQEIAALATHLLQQSPV
Km [1]: 2400 µM
kcat [1]: 0.0597 s⁻¹
kcat/Km [1]: 24.6 M⁻¹ s⁻¹
Km [2]: 5.6 µM

B2: Saccharothrix espanaensis SeSam8 (Protein GI 433607630), His-tagged (N-terminal tag SEQ ID NO: 11) (Saccharothrix espanaensis) (protein)
chain: MTQVVERQADRLSSREYLARVVRSAGWDAGLTSCTDEEIVRMGASARTIEEYLKSDKPIYGLTQGFGPLVLFDADSELEQGGSLISHLGTGQGAPLAPEVSRLILWLRIQNMRKGYSAVSPVFWQKLADLWNKGFTPAIPRHGTVSASGDLQPLAHAALAFTGVGEAWTRDADGRWSTVPAVDALAALGAEPFDWPVREALAFVNGTGASLAVAVLNHRSALRLVRACAVLSARLATLLGANPEHYDVGHGVARGQVGQLTAAEWIRQGLPRGMVRDGSRPLQEPYSLRCAPQVLGAVLDQLDGAGDVLAREVDGCQDNPITYEGELLHGGNFHAMPVGFASDQIGLAMHMAAYLAERQLGLLVSPVTNGDLPPMLTPRAGRGAGLAGVQISATSFVSRIRQLVFPASLTTLPTNGWNQDHVPMALNGANSVFEALELGWLTVGSLAVGVAQLAAMTGHAAEGVWAELAGICPPLDADRPLGAEVRAARDLLSAHADQLLVDEADGKDFG
Km [3]: 2200 µM
kcat [3]: 0.00883 s⁻¹
kcat/Km [3]: 4.03 M⁻¹ s⁻¹
Km [4]: 4.8 µM

B3: Herpetosiphon aurantiacus HaXAL1 tyrosine ammonia lyase (Protein GI 159898407), SEQ ID NO: 2, His-tagged (N-terminal tag SEQ ID NO: 11) (Herpetosiphon … (protein)
chain: MSTTLILTGEGLGIDDVVRVARHQDRVELTTDPAILAQIEASCAYINQAVKEHQPVYGVTTGFGGMANVIISPEEAAELQNNAIWYHKTGAGKLLPFTDVRAAMLLRANSHMRGASGIRLEIIQRMVTFLNANVTPHVREFGSIGASGDLVPLISITGALLGTDQAFMVDFNGETLDCISALERLGLPRLRLQPKEGLAMMNGTSVMTGIAANCVHDARILLALALEAHALMIQGLQGTNQSFHPFIHRHKPHTGQVWAADHMLELLQGSQLSRNELDGSHDYRDGDLIQDRYSLRCLPQFLGPIIDGMAFISHHLRVEINSANDNPLIDTASAASYHGGNFLGQYIGVGMDQLRYYMGLMAKHLDVQIALLVSPQFNNGLPASLVGNIQRKVNMGLKGLQLTANSIMPILTFLGNSLADRFPTHAEQFNQNINSQGFGSANLARQTIQTLQQYIAITLMFGVQAVDLRTHKLAGHYNAAELLSPLTAKIYHAVRSIVKHPPSPERPYIWNDDEQVLEAHISALAHDIANDGSLVSAVEQTLSGLRSIILFR
Specific production of CA ([5]; Delft + Tyr (10 mM)): 0 ± 0 μM OD600-1
Specific production of pHCA ([5]; Delft + Tyr (10 mM)): 110 ± 15 μM OD600-1
Specific production of CA ([5]; Delft medium): 0 ± 0 μM OD600-1
Specific production of pHCA ([5]; Delft medium): 31 ± 3.2 μM OD600-1
Specific production of CA ([5]; FIT + Tyr (10 mM)): 0 ± 0 μM OD600-1
Specific production of pHCA ([5]; FIT + Tyr (10 mM)): 120 ± 10 μM OD600-1
Specific production of CA ([5]; FIT medium): 0 ± 0 μM OD600-1
Specific production of pHCA ([5]; FIT medium): 140 ± 13 μM OD600-1
Specific production of CA ([6]; M9 + Phe (2 mM)): 1.1 ± 0.2 μM OD600-1
Specific production of pHCA ([6]; M9 + Phe (2 mM)): 36 ± 14 μM OD600-1
Specific production of CA ([6]; M9 + Tyr (2 mM)): 0 ± 0 μM OD600-1
Specific production of pHCA ([6]; M9 + Tyr (2 mM)): 130 ± 26 μM OD600-1
Km [7]: 22000 µM
kcat [7]: 0.128 s⁻¹
kcat/Km [7]: 6.1 M⁻¹ s⁻¹
Km [8]: 16 µM
Titer of ferulic acid ([9]; M9 + 3-O-methyldopa (262 μM)): 0.6 ± 0.0 µM
Titer of caffeic acid ([9]; M9 + L-dopa (194 μM)): 6.9 ± 1.3 µM
Titer of p-coumaric acid ([9]; M9 + tyrosine (204 μM)): 81 ± 1.2 µM
